The numbers were not newly measured in PMC4681696, which cites them from elsewhere.

The target in the data set is p75NTR (Homo sapiens) (UniProt P08138).
Chain of UniProt P08138 (P08138 29-250): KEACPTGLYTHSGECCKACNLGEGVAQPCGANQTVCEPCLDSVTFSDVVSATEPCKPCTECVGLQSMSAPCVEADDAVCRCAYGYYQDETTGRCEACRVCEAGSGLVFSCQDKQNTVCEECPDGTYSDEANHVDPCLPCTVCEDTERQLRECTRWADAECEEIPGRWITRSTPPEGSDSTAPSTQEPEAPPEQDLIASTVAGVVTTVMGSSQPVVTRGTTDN

For the substance NGF (from UniProt P01138), the dissociation constant Kd – broadly, the concentration at which binding is half-saturated – was 7 nM.
